The record followed here is a protein production outcome set (Wang et al. 2014).

The series is described as follows: label from the status in PepcDB records.
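Further: failed if final PepcDB status was selected cloned or expressed and not failed if soluble or beyond.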

For the sequence “MESVSCSAAAVRTGDMESQRDLSLVPERLQRREQERQLEVERRKQKRQNQEVEKENSHFFVATFARERAAVEELLERAESVERLEEAASRLQGLQKLINDSVFFLAAYDLRQGQEALARLQAALAERRRGLQPKKRFAFKTRGKDAASSTKVDAAPGIPPAVESIQDSPLPKKAEGDLGPSWVCGFSNLESQVLEKRASELHQRDVLLTELSNCTVRLYGNPNTLRLTKAHSCKLLCGPVSTSVFLEDCSDCVLAVACQQLRIHSTKDTRIFLQVTSRAIVEDCSGIQFAPYTWSYPEIDKDFESSGLDRSKNNWNDVDDFNWLARDMASPNWSILPEEERNIQWD”, the protein production entry was “not failed”.

For “METAKDGEQSPSEASPPTQAGPETISEPVPLEEEGQPLYHEETIDLGGDDFASEETEPTSEGSHNFGDKLNEHMMESVLISDSPNNSEGDVGDLGCLQDVGEPPRGATDHRLPDSTDKEVVDTLSNGSETDGDDTPRDISDMTPDSRASLKEDSTQEDVPAMPALENAGTEEVGPKDSLVPREEQTSEVSSSQSSSKDEPLPVCTIFSQATSTSSQPHLFLQDGFESQMVKSPSFSSTSETSAKTPPPMVQPSPSLSTFFGDTMSSNSLASDFFDSFTTSTFISVSNPNAGSPVPEKLASLTAPVGEKSPDSTSPSYSTRMDRSESGVSRAALDVPESPKPFSQIQAVFAGSDDPFATALSMSEMDRRNDAWLPSQATREVLMSVATQQYGTVFIDKENLTMPGLKFDNIQGDAVKDLMLRFLGEKAAAKRQVLNASSVEQSFVGLKQLISCRNWRAAVDLCGRLLTAHGQGYGKSGLPTNHTTDSLQLWFVRLALLVKLGLFQNAEMEFEPFGNLDQPDLYYEYYPHVYPGRRGSMVPFSMRILHAELQQYLGNPQESLDRLHRVKTVCSKILANLEQGLAEDGGLSSVTQESRQASVQLWRSRLGRVLYSMANCLLLMKDYVLAVNAYLTVIKYYPEQEPQLLSGIGRILLQIGDIKTAEKYFQDVEKVTQKLDGLQGKIMVLMNRAFLYLGQNNFAEAHKFFTEILRMDPTNAVANNNAAVCLLYLGKLKDSLRQLEAMVQQDPRHYLHESVLFNLTTMYELESSRSMQKKQSLLEAVASKEGDSFNTQCLKLA”, the protein production entry is listed as “failed”.

As for “METEGSLSILHVDDDAELGALVELYLEREDSGLDCTVTTETNPETALSLIRSSETNFDCIVSDYDMPEMNGIDFLEAIRETHPELPVLLFSGEETGDVAAEIIQAGVTDYLKKSVGTDQYTSLIRRVEHAVDSDGSFETGNEVKLSGVGVIGTDERFERVGETYASYYGYESEELVGKHWSELHPSNEVQHIRTHVIPAVRSGGKWTGQSKGLRADETTFTESKMVTALEDGRMLIAVDEIDDSGLAE”, the protein production result is listed as “failed”.

Take “METGAGIGLYPLHRCKTIYLVRHAQGIHNVDGEKNYKAYMSHDYFDAELTQLGWKQVDSLRKHVHSSGLHKKIELVISSPLMRTLQTAVGVFGGEGYTDMSDVLPLMVANAGNSSRAAISSLNCPPVITEESCREHLGVHPCDQRRSISDYQFLFPAVDFSLIESEEDKLWKADVRETIEELAARGKKFLNWLWTRKEKEIAIVTHSGFLFHTLNALQNECHPDVKKEICGHFANCELRSMVIVDRSMLGSDSSVTDYPGKIPKGIDLPSDAVVDDNNIKVE”: the protein production result is listed as “not failed”.

Turning to “METKGTGMTVNTVDVSAGRAQQVLREGWAAQRAGALTTSWMLHGRPGVGKTEIVRQLAAEQGARFYDLRLTTIESQDLRGLPYYDHETKKTQWYRPEDLPDDPDRPSLLFLDELTAAPPHLHPAVYGLLLERRVGPHILPDNVFLVAAGNMVEDGAVAYEMGTALSDRLIHLQVRATASDWLESYAVPRTLHPAVLAFIRMRPDLLETTAEALDRGLMISTTPRSWDRVSRIMGAVQDRALRRIMVAGTVGEAVAAEFMLVADDIEASVSVERLLNAAPHERIMLYPESMHGLHALIYGLVGALGPTTAVPVIDVMAGIRTLDVHRSDASFARMPLAELCTHGFEMAIRRGLEQGLAEDFLGHPAYAAYASERQAMGLELEHHHHHH”, the protein production entry was “failed”.

As for “METLDNHDQGFCRQVPRQAVCGFSRRTGWGGAAIFVMLMTLALAAPVQAQSLRQGVSAYQRQDYVAASRIFIPLAERGNAAAQTYLGLLFETGRGLPQNYTEAAMWYRRAAEQGDSRAQYSLGLLYDRGFGVPQDVVEASKWLNLSTAAAPPRAREARVRIRDAVTTKMTRGEIAQARLRALEWAPSREH”, the protein production entry is “failed”.

Regarding “METNQLRGIFYMMAAMLLISVQEALAKYLGQALPVAQVVWARYLGHLVLMIILLWPKNGMSLLKTNKLFIQIARSLILLIDTVLFFFGLTMLGLAEATAIFFTVPLLVLLLSIPLLGERVSASSIVAVIVGFIGTLIIVRPGINGLGSSDLGIGALFIFGAACCTAIYNVTTRKLSASEPIPVTLFYTAIVGAVVTSLFLPFIWETPTSLEVWAALIFIGLFGGSAHSLIIISHKYAAATTVAPFIYSQIFWALGLGWLMFGELPDFYVYFGGAIVISSGLYLFYHGRTRVNTASQQLGKDPLLVNAAKIKALQNRP”, the protein production result is listed as “failed”.

Consider “METPKGTIIFTTVGRTHYGFDVFSLNIATSVERRLTDGVSVNFNAQFVNDKSDDVVFVSERNGSARIYKTRSGISKPEQIPGAPESYFHDRPIITQNNRLYFISAHEQPDRYFKNWSALYTVELNSAKREVTRVTPPDTADFSPAVSQSGDFLAVASYGTRSWGGEFHEINTDITVFKASKPETRVVICERGGWPTWSGDSTVFFHHQADDGWWSIFRVDIPENFTEYTDFPITPIRVTPSGLHCFTPAAFRDGKRIALATRRRGVNHRHIEIYDLENTTFQPVTESLNPSFHHYNPFVSPDSEFLGYHRFRGESTQGESIVPNIESIVSPIKTLRLLRINGSFPSSSPNGDLIALNSDFDINGGIKVSKSDGSKRWTLIKDRTAFYNSWSPTERHVIYTSLGPIFSPARIAVQIARIKFDPSDLTADKEDLPCDVKILTLENTGNNAFPSCSPDGKSIVFRSGRSGHKNLYIVDAVNGESNGGGIRRLTDGPWIDTMPCWSPKGDLIGFSSNRHNPENTAVFGAYVVRPDGTGLRRIQISGPEGSEEAARERVNHVSFNKDGDWLVFAANLSGVTAEPVTMPNQFQPYGDLYVVKLDGTGLRRLTWNGYEDGTPTWHTADELDLSQLNLNGQDGDKLEGQFEEPLWISCDI”, for which the protein production entry is recorded as “failed”.

Take “METQFHGGDGEDPWLARDKLYHVIFCFSISLIFSTLASFSRYSFLRRHSIWIGSAFSLAAGAAKEAADQIGIFPSAGASVRDAVADAIGVVIAALVLLLWKSRRSRTRPILPI”: the protein production entry is “failed”.

“METRAAENTAIFMCKCCNLFSPNQSELLSHVSEKHMEEGVNVDEIIIPLRPLSTPEPPNSSKTRDEFLVMKRKRGRPKGSTKKSSTEEELAENIVSPTEDSPLAPEEGNSLPPSSLECSKCCRKFSNTRQLRKHICIIVLNLGEEEGEAGNESDLELEKKCKEDDREKASKRPRSQKTEKVQKISGKEARQLSGAKKPIISVVLTAHEAIPGATKIVPVEAGPPETGATNSETTSADLVPRRGYQEYAIQQTPYEQPMKSSRLGPTQLKIFTCEYCNKVFKFKHSLQAHLRIHTNEKPYKCPQCSYASAIKANLNVHLRKHTGEKFACDYCSFTCLSKGHLKVHIERVHKKIKQHCRFCKKKYSDVKNLIKHIRDAHDPQDKKVKEALDELCLMTREGKRQLLYDCHICERKFKNELDRDRHMLVHGDKWPFACELCGHGATKYQALELHVRKHPFVYVCAVCRKKFVSSIRLRTHIKEVHGAAQEALVFTSSINQSFCLLEPGGDIQQEALGDQLQLVEEEFALQGVNALKEEACPGDTQLEEGRKEPEAPGEMPAPAVHLASPQAESTALPPCELETTVVSSSDLHSQEVVSDDFLLKNDTSSAEAHAAPEKPPDMQHRSSVQTQGEVITLLLSKAQSAGSDQESHGAQSPLGEGQNMAVLSAGDPDPSRCLRSNPAEASDLLPPVAGGGDTITHQPDSCKAAPEHRSGITAFMKVLNSLQKKQMNTSLCERIRKVYGDLECEYCGKLFWYQVHFDMHVRTHTREHLYYCSQCHYSSITKNCLKRHVIQKHSNILLKCPTDGCDYSTPDKYKLQAHLKVHTALDKRSYSCPVCEKSFSEDRLIKSHIKTNHPEVSMSTISEVLGRRVQLKGLIGKRAMKCPYCDFYFMKNGSDLQRHIWAHEGVKPFKCSLCEYATRSKSNLKAHMNRHSTEKTHLCDMCGKKFKSKGTLKSHKLLHTADGKQFKCTVCDYTAAQKPQLLRHMEQHVSFKPFRCAHCHYSCNISGSLKRHYNRKHPNEEYANVGTGELAAEVLIQQGGLKCPVCSFVYGTKWEFNRHLKNKHGLKVVEIDGDPKWETATEAPEEPSTQYLHITEAEEDVQGTQAAVAALQDLRYTSESGDRLDPTAVNILQQIIELGAETHDATALASVVAMAPGTVTVVKQVTEEEPSSNHTVMIQETVQQASVELAEQHHLVVSSDDVEGIETVTVYTQGGEASEFIVYVQEAMQPVEEQAVEQPAQEL”: the protein production result is “not failed”.
